# B1: β-glucuronidase: M6P-containing lysosomal enzyme (protein, UniProt P08236 23-651, looked up)
# Beta-glucuronidase: LQGGMLYPQESPSRECKELDGLWSFRADFSDNRRRGFEEQWYRRPLWESGPTVDMPVPSSFNDISQDWRLRHFVGWVWYEREVILPERWTQDLRTRVVLRIGSAHSYAIVWVNGVDTLEHEGGYLPFEADISNLVQVGPLPSRLRITIAINNTLTPTTLPPGTIQYLTDTSKYPKGYFVQNTYFDFFNYAGLQRSVLLYTTPTTYIDDITVTTSVEQDSGLVNYQISVKGSNLFKLEVRLLDAENKVVANGTGTQGQLKVPGVSLWWPYLMHERPAYLYSLEVQLTAQTSLGPVSDFYTLPVGIRTVAVTKSQFLINGKPFYFHGVNKHEDADIRGKGFDWPLLVKDFNLLRWLGANAFRTSHYPYAEEVMQMCDRYGIVVIDECPGVGLALPQFFNNVSLHHHMQVMEEVVRRDKNHPAVVMWSVANEPASHLESAGYYLKMVIAHTKSLDPSRPVTFVSNSNYAADKGAPYVDVICLNSYYSWYHDYGHLELIQLQLATQFENWYKKYQKPIIQSEYGAETIAGFHQDPPLMFTEEYQKSLLEQYHLGLDQKRRKYVVGELIWNFADFMTEQSPTRVLGNKKGIFTRQRQPKSAAFLLRERYWKIANETRYPHSVAKSQCLENSLFT
# Molecular target: T1, partially purified rat M6P/IGF-II receptor (Rattus norvegicus, UniProt G3V824)
# T1 construct: both intact (300 kDa) and truncated (260 kDa) forms of M6P/IGF-II receptor exist in the serum; from tissue; host or cells: neonatal rat serum, FPLC Sepharose-12 fraction
# T1 sequence (G3V824 36-2481): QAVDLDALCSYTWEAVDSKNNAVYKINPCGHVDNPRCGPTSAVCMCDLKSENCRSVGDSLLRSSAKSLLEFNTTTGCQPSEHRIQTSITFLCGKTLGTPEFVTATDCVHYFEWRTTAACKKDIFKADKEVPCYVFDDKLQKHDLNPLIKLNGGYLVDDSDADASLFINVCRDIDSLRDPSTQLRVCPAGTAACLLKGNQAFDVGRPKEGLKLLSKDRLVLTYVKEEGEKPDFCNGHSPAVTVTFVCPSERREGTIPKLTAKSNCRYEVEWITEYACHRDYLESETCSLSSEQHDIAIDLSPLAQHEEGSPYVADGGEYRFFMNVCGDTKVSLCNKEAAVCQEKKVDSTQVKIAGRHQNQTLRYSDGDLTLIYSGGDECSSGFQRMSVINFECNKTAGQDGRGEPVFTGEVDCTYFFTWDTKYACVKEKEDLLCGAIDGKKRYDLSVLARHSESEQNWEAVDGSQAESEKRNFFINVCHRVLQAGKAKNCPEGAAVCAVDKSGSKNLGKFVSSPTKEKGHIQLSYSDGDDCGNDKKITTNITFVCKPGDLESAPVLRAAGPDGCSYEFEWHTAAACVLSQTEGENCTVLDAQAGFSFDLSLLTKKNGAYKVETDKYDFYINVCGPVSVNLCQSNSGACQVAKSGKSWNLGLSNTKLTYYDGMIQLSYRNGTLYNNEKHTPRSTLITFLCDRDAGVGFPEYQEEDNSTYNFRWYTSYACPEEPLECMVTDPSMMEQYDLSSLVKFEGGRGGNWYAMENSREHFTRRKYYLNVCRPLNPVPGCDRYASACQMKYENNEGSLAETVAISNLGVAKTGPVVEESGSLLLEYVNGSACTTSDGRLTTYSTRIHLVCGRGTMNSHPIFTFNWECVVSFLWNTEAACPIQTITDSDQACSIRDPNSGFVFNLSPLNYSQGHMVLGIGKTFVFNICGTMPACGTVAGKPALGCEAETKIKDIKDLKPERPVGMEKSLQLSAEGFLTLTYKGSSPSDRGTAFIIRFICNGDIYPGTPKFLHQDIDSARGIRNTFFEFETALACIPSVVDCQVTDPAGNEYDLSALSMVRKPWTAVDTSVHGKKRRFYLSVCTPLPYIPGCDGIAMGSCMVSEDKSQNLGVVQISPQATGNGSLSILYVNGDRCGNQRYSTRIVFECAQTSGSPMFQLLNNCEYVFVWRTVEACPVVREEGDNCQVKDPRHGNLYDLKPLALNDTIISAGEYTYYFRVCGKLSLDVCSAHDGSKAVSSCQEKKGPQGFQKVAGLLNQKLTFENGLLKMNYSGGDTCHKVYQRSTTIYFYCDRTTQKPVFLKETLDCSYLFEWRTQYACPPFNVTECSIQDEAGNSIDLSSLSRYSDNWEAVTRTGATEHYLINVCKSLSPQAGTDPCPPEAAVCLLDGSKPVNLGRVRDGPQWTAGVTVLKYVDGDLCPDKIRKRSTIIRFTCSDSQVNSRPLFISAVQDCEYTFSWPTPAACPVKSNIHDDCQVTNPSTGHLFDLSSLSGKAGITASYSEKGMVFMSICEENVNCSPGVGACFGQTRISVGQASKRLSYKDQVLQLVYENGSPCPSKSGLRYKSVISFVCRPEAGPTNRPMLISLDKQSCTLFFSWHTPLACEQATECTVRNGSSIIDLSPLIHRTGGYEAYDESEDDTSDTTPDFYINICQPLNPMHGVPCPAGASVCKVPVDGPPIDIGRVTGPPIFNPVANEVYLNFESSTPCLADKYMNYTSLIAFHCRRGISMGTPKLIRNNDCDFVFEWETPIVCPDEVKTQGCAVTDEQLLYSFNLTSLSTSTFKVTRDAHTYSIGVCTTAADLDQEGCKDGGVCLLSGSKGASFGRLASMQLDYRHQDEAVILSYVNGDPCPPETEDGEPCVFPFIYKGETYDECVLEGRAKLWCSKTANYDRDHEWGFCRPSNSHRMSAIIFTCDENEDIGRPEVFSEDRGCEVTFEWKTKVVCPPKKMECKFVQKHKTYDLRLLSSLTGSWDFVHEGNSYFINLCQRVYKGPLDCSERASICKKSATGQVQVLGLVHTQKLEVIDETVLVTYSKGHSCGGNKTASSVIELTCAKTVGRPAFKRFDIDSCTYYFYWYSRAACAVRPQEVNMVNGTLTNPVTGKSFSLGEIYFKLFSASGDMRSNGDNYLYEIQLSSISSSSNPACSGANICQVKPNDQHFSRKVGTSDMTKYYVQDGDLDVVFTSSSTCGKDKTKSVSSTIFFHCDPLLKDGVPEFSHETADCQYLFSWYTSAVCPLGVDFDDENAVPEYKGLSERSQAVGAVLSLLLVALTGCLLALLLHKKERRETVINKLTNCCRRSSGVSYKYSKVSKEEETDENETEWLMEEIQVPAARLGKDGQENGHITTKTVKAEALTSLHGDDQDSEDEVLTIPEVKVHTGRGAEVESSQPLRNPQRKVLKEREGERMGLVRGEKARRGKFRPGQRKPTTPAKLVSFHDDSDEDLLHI
# Assay: Equilibrium [3H]RA ligand-binding assay (dextran-charcoal), Scatchard analysis
# Details: β-glucuronidase 2,500 units/ml
# Experimental: Partially purified M6P/IGF-II receptors from neonatal rat serum was prepared using a Fast Protein Liquid Chromatography (FPLC) system equipped with a Sepharose-12 column (Pharmacia). The partially purified M6P/IGF2R protein was diluted in binding buffer (20 mM Tris-HCl, pH 8.0/150 mM NaCl/1mM DTT/protease inhibitors) at a concentration of 50 Ag/ml. […] Incubation was carried out at 22° C. for 2 h in the dark. After the incubation, 0.2 ml chilled charcoal-dextran suspension (charcoal/dextran/glycerol=0.5%/0.05%/20%) was added to remove the unbound ligand.
molecule,measurement,value
B1,Effect on [3H]RA binding to the receptor,increase [^3H]RA binding
